Values joined by “and” are separate entries in the source; they are usually repeats but may differ in a detail not shown here. Identical values can stand only once.
Assays:
[1] = target: DNA polymerase α-primase complex (human) (UniProt P09884)
[2] = target: DNA polymerase α-primase complex (human) (UniProt P09884); remark: listed apart in the source
[3] = target: full-length SV40 T antigen Tag_(1-708) (simian virus 40) (UniProt P03070); assay: atomic force microscopy (volume analysis); 500 nM protein (or 250 nM each of M1 and M2) with gapped DNA substrate (48 nt ssDNA at the centre of ~500 bp, 3-5 nM) in 25 mM HEPES-NaOH pH 7.5, 25 mM sodium acetate, 10 mM magnesium acetate, 1 mM ATP, 1 h at room temperature; cross-linked with 0.1% glutaraldehyde; volumes of complexes on the ssDNA stretch
[4] = target: wt Tag_(131-627) (simian virus 40); assay: SEC; Superdex 200 16/600 column; proteins in solution; data not shown
[5] = target: wt Tag_(131-627) (simian virus 40); assay: atomic force microscopy (volume analysis); 500 nM protein (or 250 nM each of M1 and M2) with gapped DNA substrate (48 nt ssDNA at the centre of ~500 bp, 3-5 nM) in 25 mM HEPES-NaOH pH 7.5, 25 mM sodium acetate, 10 mM magnesium acetate, 1 mM ATP, 1 h at room temperature; cross-linked with 0.1% glutaraldehyde; volumes of complexes on the ssDNA stretch

UniProt P09884, sequence (P09884 whole entry, chain 1 of 4): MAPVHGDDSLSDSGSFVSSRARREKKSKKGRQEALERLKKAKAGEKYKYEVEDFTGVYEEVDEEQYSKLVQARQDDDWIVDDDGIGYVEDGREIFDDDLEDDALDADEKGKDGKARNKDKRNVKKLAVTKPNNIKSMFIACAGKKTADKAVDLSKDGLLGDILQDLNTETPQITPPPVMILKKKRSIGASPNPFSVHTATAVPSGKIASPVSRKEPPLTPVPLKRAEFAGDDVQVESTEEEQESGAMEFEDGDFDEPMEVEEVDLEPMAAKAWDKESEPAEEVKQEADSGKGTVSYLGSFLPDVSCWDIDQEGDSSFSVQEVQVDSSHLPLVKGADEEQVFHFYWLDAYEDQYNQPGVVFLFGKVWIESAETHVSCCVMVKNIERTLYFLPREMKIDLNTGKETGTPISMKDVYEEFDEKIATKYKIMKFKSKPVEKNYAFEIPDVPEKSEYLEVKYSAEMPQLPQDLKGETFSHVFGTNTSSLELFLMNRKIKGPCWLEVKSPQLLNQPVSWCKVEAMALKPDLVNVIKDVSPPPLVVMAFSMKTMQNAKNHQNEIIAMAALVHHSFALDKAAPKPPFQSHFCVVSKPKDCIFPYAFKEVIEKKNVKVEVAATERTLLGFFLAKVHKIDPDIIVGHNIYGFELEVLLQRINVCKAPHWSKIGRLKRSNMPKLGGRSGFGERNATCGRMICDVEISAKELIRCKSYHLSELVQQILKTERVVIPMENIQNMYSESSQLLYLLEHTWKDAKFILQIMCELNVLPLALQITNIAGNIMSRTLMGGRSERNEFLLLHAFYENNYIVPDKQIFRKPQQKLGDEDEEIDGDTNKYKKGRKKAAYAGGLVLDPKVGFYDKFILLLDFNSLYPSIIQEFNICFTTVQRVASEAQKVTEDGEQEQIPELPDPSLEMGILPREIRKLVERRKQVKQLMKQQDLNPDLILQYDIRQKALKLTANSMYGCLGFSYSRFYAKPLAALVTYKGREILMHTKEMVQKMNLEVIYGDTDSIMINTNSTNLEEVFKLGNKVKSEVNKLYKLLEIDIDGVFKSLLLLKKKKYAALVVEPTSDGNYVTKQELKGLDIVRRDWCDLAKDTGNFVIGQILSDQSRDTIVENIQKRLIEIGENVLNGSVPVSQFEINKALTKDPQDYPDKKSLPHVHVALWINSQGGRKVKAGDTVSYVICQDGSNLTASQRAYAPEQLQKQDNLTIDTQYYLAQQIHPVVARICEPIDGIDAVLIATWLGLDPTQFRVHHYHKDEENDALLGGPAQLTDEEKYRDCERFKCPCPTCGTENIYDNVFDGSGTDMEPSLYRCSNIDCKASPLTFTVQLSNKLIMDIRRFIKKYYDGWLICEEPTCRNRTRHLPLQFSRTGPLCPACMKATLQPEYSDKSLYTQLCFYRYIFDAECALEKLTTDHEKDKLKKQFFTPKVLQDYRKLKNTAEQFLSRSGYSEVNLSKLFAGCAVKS
UniProt P09884, sequence (Q14181 whole entry, chain 2 of 4, further chain): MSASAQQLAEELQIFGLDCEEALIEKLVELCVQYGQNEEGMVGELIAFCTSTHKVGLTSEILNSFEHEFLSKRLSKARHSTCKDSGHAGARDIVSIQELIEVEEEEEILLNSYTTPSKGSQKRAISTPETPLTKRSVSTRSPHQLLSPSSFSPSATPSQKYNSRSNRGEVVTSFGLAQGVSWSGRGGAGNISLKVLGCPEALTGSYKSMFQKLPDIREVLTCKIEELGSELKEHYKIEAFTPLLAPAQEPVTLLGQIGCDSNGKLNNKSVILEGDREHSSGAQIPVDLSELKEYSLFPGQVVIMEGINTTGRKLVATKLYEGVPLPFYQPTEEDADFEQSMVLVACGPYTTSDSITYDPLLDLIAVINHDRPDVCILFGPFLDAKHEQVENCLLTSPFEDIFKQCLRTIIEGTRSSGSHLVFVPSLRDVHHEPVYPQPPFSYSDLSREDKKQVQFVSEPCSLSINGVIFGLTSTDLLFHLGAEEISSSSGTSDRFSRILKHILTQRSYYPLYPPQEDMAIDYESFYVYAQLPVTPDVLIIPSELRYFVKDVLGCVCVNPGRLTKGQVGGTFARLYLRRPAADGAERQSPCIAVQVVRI
UniProt P09884, sequence (P49643 whole entry, chain 3 of 4, further chain): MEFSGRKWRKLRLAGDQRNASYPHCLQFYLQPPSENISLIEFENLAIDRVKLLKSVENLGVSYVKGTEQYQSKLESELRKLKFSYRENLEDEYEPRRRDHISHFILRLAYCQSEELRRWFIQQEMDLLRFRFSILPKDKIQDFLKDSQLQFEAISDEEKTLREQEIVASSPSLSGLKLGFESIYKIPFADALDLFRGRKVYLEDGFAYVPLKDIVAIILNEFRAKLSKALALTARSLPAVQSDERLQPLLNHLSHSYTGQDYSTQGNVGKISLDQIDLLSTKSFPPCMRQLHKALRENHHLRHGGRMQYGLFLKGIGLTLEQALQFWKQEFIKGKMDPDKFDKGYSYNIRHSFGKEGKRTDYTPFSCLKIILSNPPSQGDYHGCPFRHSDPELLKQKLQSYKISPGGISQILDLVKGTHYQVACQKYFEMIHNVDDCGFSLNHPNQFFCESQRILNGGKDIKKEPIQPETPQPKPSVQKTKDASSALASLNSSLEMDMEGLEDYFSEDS
UniProt P09884, sequence (P49642 whole entry, chain 4 of 4, further chain): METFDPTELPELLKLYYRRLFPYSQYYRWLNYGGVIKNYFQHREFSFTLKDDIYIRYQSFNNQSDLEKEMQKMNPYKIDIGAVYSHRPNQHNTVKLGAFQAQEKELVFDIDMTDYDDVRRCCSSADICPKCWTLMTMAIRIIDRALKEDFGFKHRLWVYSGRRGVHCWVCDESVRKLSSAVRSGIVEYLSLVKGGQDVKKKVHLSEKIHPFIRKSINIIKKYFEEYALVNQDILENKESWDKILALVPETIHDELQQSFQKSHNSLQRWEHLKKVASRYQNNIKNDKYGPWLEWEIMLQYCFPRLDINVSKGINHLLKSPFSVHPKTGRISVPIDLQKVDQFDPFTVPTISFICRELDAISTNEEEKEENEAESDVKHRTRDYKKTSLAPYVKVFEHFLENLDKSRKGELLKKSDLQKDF

Tag_(131-627)(L286D/R567E) (domain or fragment)
primase-initiated DNA synthesis (dNMP incorporation) by Pol-prim on ΦΧ174 ssDNA, 0.3 and 0.6 µg Tag variant, stimulation against Pol-prim alone [1]: 4 fold | primase-initiated DNA synthesis (dNMP incorporation) by Pol-prim on RPA-bound ssDNA (0.5 µg RPA), 0.3 and 0.6 µg Tag variant, stimulation against RPA without Tag [2]: 10.4 fold

full-length SV40 T antigen Tag_(1-708) (from UniProt P03070 1-708) (natural protein)
primase-initiated DNA synthesis (dNMP incorporation) by Pol-prim on RPA-bound ssDNA (0.5 µg RPA), 0.3 and 0.6 µg Tag, stimulation against RPA without Tag [2]: 11.5 fold | stoichiometry N [3]: 2

Tag_(131-627)(V350E/P417D) (domain or fragment)
primase-initiated DNA synthesis (dNMP incorporation) by Pol-prim on ΦΧ174 ssDNA, 0.3 and 0.6 µg Tag variant, reduction against Pol-prim alone [1]: 65 % reduction

wt Tag_(131-627) (domain or fragment)
primase-initiated DNA synthesis (dNMP incorporation) by Pol-prim on ΦΧ174 ssDNA, 0.3 and 0.6 µg Tag variant, inhibition against Pol-prim alone [1]: 96 % inhibition | stoichiometry N [4]: 6 | stoichiometry N [5]: 6 and 12
